In general, pEC50 refers to the negative decadic logarithm of the EC50, by convention in mol/L.

pEC50: −log10 of the molar value.

The target in experiment [1] is human P-cadherin expressed on the cell surface (human) (UniProt P22223). Description: cell ELISA, H1650 cells. On the technique in general: In an ELISA, binding on a coated surface is turned into a signal by an enzyme label.
Experiment [2] has the same target. Kind of experiment: cell ELISA, CHO-huPcad cells.
The next experiment addresses muP-cad-ECD (murine) (UniProt P10287). Kind of experiment: ELISA, recombinant protein.
The next experiment deals with huP-cad-ECD (human) (UniProt P22223). Kind of experiment: ELISA, recombinant protein.
huP-cad-ECD (human), sequence (P22223 108-654): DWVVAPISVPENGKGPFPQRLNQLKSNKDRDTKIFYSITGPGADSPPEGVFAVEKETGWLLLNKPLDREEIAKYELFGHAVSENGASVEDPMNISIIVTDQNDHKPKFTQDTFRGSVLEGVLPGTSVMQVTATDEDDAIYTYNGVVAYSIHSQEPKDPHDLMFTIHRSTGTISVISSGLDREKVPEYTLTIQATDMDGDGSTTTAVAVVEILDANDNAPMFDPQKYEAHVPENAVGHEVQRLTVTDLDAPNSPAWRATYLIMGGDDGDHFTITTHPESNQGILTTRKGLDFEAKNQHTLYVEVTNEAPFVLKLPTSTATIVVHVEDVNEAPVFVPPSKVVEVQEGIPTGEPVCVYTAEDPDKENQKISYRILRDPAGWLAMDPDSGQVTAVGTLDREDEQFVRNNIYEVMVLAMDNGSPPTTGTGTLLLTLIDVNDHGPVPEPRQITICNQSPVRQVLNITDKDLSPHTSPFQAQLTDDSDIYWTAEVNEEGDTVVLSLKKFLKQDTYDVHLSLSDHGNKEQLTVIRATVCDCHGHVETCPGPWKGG
The target in experiment [3] is huP-cad-ECD biotinylated (human) (UniProt P22223). Description: ELISA, recombinant protein.
huP-cad-ECD biotinylated (human), sequence (P22223 108-654): as above
The target of experiment [4] is human P-cadherin expressed on the cell surface (human) (UniProt P22223). Kind of experiment: cell ELISA, SW480-huPcad cells.
For experiment [5], the target named is human P-cadherin, cell surface expressed (human) (UniProt P22223). Description: quantitative flow cytometry (QuantiBRITE PE), SUM149 cells. In general terms: A flow cytometer gives signals particle by particle.
human P-cadherin, cell surface expressed (human), sequence (P22223 108-829): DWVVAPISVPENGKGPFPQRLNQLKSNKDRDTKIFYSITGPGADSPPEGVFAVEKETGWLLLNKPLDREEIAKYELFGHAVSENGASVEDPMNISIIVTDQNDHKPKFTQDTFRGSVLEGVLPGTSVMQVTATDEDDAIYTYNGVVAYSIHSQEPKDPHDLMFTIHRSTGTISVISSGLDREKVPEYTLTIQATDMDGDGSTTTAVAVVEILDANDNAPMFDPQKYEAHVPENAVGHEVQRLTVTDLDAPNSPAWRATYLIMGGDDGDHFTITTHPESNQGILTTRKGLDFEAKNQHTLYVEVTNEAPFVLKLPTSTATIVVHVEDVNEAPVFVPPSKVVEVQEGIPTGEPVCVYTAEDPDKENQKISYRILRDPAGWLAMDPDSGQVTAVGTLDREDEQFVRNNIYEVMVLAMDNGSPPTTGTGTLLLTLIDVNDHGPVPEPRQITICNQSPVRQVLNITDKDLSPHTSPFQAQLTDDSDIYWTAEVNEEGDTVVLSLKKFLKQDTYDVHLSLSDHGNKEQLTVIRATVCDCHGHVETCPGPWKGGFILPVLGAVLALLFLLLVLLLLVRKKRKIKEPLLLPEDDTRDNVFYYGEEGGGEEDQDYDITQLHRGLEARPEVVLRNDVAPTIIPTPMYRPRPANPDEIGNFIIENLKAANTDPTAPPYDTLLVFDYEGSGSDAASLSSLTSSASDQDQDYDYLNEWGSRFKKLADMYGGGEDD
Experiment [6] shares this target. Kind of experiment: quantitative flow cytometry (QuantiBRITE PE), HCT116 cells.
Experiment [7] shares this target. Description: quantitative flow cytometry (QuantiBRITE PE), HT29_Luc cells.
The target is the same in experiment [8]. Kind of experiment: flow cytometry, PE-labeled mAb, H1650_Luc cells.
For experiment [9] the target is unchanged. Description: flow cytometry, PE-labeled mAb, SUM149_Luc cells.
The target is the same in experiment [10]. Kind of experiment: flow cytometry, PE-labeled mAb, LoVo_Luc cells.
For experiment [11] the target is unchanged. Kind of experiment: quantitative flow cytometry (QuantiBRITE PE), BT20_Luc cells.
Experiment [12] has the same target. Kind of experiment: quantitative flow cytometry (QuantiBRITE PE), H1975_Luc cells.
For experiment [13] the target is unchanged. Kind of experiment: quantitative flow cytometry (QuantiBRITE PE), SW480 cells.
Experiment [14] shares this target. Kind of experiment: quantitative flow cytometry (QuantiBRITE PE), Colo205_Luc cells.
For experiment [15] the target is unchanged. Kind of experiment: quantitative flow cytometry (QuantiBRITE PE), H322_Luc cells.
The target is the same in experiment [16]. Description: quantitative flow cytometry (QuantiBRITE PE), Ls174T_Luc cells.
Experiment [17] has the same target. Kind of experiment: quantitative flow cytometry (QuantiBRITE PE), Ls174T cells.
For experiment [18] the target is unchanged. Kind of experiment: flow cytometry, PE-labeled mAb, SW480_Luc cells.
The target is the same in experiment [19]. Description: flow cytometry, PE-labeled mAb, Ls174T_Luc cells.
For experiment [20] the target is unchanged. Kind of experiment: quantitative flow cytometry (QuantiBRITE PE), H1650_Luc cells.
Experiment [21] has the same target. Description: flow cytometry, PE-labeled mAb, Colo205_Luc cells.
Experiment [22] shares this target. Description: quantitative flow cytometry (QuantiBRITE PE), SW620_Luc cells.
Experiment [23] has the same target. Kind of experiment: flow cytometry, PE-labeled mAb, SW480 cells.
For experiment [24] the target is unchanged. Description: quantitative flow cytometry (QuantiBRITE PE), SUM149_Luc cells.
For experiment [25] the target is unchanged. Kind of experiment: flow cytometry, PE-labeled mAb, SW620_Luc cells.
Experiment [26] has the same target. Description: flow cytometry, PE-labeled mAb, H1975_Luc cells.
Experiment [27] has the same target. Kind of experiment: flow cytometry, PE-labeled mAb, Ls174T cells.
Experiment [28] has the same target. Description: flow cytometry, PE-labeled mAb, HCT116_Luc cells.
The target is the same in experiment [29]. Kind of experiment: quantitative flow cytometry (QuantiBRITE PE), SW620 cells.
Experiment [30] shares this target. Description: quantitative flow cytometry (QuantiBRITE PE), HCT116_Luc cells.
For experiment [31] the target is unchanged. Description: flow cytometry, PE-labeled mAb, HCT116 cells.
The target is the same in experiment [32]. Kind of experiment: quantitative flow cytometry (QuantiBRITE PE), SW480_Luc cells.
For experiment [33] the target is unchanged. Kind of experiment: flow cytometry, PE-labeled mAb, BT20_Luc cells.
Experiment [34] shares this target. Description: quantitative flow cytometry (QuantiBRITE PE), LoVo_Luc cells.
For experiment [35] the target is unchanged. Description: flow cytometry, PE-labeled mAb, SUM149 cells.
Experiment [36] shares this target. Kind of experiment: flow cytometry, PE-labeled mAb, SW620 cells.
The target is the same in experiment [37]. Description: flow cytometry, PE-labeled mAb, H322_Luc cells.
For experiment [38] the target is unchanged. Kind of experiment: flow cytometry, PE-labeled mAb, HT29_Luc cells.
Experiment [39] shares this target. Description: flow cytometry, PE-conjugated mAb, H322_Luc cells.
Experiment [40] has the same target. Description: flow cytometry, PE-conjugated mAb, BT20_Luc cells.
Experiment [41] shares this target. Description: flow cytometry, PE-conjugated mAb, HCT116_Luc cells.
The target is the same in experiment [42]. Kind of experiment: flow cytometry, PE-conjugated mAb, SW620 cells.
The target is the same in experiment [43]. Description: flow cytometry, PE-conjugated mAb, HCT116 cells.
Experiment [44] has the same target. Description: flow cytometry, PE-conjugated mAb, Ls174T cells.
The target is the same in experiment [45]. Description: flow cytometry, PE-conjugated mAb, SW480_Luc cells.
For experiment [46] the target is unchanged. Description: flow cytometry, PE-conjugated mAb, Colo205_Luc cells.
For experiment [47] the target is unchanged. Kind of experiment: flow cytometry, PE-conjugated mAb, HT29_Luc cells.
Experiment [48] has the same target. Kind of experiment: flow cytometry, PE-conjugated mAb, SW480 cells.
Experiment [49] has the same target. Kind of experiment: flow cytometry, PE-conjugated mAb, Ls174T_Luc cells.
For experiment [50] the target is unchanged. Description: flow cytometry, PE-conjugated mAb, H1975_Luc cells.
The target is the same in experiment [51]. Description: flow cytometry, PE-conjugated mAb, LoVo_Luc cells.
The target is the same in experiment [52]. Description: flow cytometry, PE-conjugated mAb, H1650_Luc cells.
The target is the same in experiment [53]. Kind of experiment: flow cytometry, PE-conjugated mAb, SUM149_Luc cells.
Experiment [54] shares this target. Kind of experiment: flow cytometry, PE-conjugated mAb, SW620_Luc cells.
Experiment [55] has the same target. Kind of experiment: flow cytometry, PE-conjugated mAb, SUM149 cells.

human P-cadherin expressed on the cell surface (human), sequence (P22223 108-829): as above
muP-cad-ECD (murine), sequence (P10287 100-647): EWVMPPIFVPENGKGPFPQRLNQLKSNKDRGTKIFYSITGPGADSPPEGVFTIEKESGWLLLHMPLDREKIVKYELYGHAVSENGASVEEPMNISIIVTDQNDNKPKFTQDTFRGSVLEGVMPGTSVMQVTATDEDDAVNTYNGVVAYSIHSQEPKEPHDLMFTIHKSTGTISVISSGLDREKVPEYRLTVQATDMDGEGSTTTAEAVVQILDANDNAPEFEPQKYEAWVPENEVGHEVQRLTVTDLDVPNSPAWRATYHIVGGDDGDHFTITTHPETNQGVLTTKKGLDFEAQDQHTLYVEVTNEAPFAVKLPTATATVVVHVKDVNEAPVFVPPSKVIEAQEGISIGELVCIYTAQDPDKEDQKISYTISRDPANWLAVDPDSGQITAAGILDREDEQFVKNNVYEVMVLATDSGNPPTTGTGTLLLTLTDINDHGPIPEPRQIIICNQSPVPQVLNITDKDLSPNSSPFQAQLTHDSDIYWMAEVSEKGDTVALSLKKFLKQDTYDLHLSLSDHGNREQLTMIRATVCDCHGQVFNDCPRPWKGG

With “anti-P-cadherin clinical mAb PF-03732010 (antibody)”, the pEC50 in [1] is 9.68; in experiment [2], 9.48; with muP-cad-ECD (murine) it was 8.63; in the experiment with huP-cad-ECD (human), 8.71; in experiment [3] it was 10.73; in experiment [4], 9.78.

On to “anti-human P-cadherin mAb PF-03732010, phycoerythrin (PE) labeled (antibody)”, for which the ABC (antibodies bound per cell) (antibodies bound per cell) in [5] was determined as 15400; in experiment [6] it was 43800; in experiment [7] it was 2420; in [11], 24300; in [12] it was 15400; in experiment [13], 12700. For the same substance, the ABC (antibodies bound per cell) (antibodies bound per cell) in experiment [14] was 874; in experiment [15] it was 16600; in [16] it was 929; in experiment [17], 4160; in [20] it was 37600; in experiment [22], 715. The ABC (antibodies bound per cell) (antibodies bound per cell) in experiment [24] was found to be 17000; in experiment [29], 1120; in [30], 26400; in experiment [32], 5300; in [34] it was 5800. For the same substance, the MFI in experiment [8] is 7960; in experiment [9], 3720; in experiment [10], 1390; in experiment [18], 1260; in experiment [19], 290; in experiment [21], 357. Besides, the MFI in [23] came to 2470; in experiment [25], 276; in experiment [26] it was 3160; in experiment [27] it was 986; in experiment [28], 5660; in experiment [31] it was 8030. Further, the MFI in [33] amounted to 5240; in [35] it was 2870; in [36] it was 297; in [37], 3230; in experiment [38], 787.

In the case of “control mouse IgG1 mAb (Biolegend), PE conjugated (antibody)”, the MFI came to 242 in [39]; 225 in experiment [40]; 229 in experiment [41]; 88 in experiment [42]; 239 in experiment [43]; 222 in [44]. Further, the MFI in [45] is 151; in experiment [46] it was 173; in experiment [47], 282; in experiment [48], 171; in experiment [49], 94; in experiment [50], 373. Further, the MFI in experiment [51] turned out to be 175; in experiment [52] it was 254; in experiment [53], 213; in experiment [54] it was 125; in experiment [55], 68.

The values above are taken from patent US20160002357A1.
